From patent publication US20230212587A1, “Mutant Hydroxyphenylpyruvate Dioxygenase Polypeptide, Encoding Gene Thereof and Use Therefor” (Beijing Dabeinong Biotechnology Co., Ltd., priority 2019, published 2023)

System: Arabidopsis thaliana T1 plants
Assay: Topramezone tolerance of transgenic Arabidopsis thaliana T1 plants (pesticide damage grade by bleached leaf area, score, resistance evaluation)
Type: in vivo
Conditions: HPPDs from different species, 7 DAT; for Classification and statistics of pesticide damage grade Grade 0 / Classification and statistics of pesticide damage grade Grade 1 / Classification and statistics of pesticide damage grade Grade 2 / Classification and statistics of pesticide damage grade Grade 3: number of plants (of 16) in this grade; for Scores: score for pesticide damage 0-100
Procedure, shortened: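 Herbicide tolerance was judged per plant on a bleaching scale (grade 0 no bleaching to grade 3 fully bleached) 7 DAT. Topramezone doses were 0, 25, 50 and 100 g ai/ha on 18-day-old T1 and wild-type plants.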

Row | Molecule | Classification and statistics of pesticide damage grade Grade 0 (topramezone 25 g ai/ha (1x)) | Classification and statistics of pesticide damage grade Grade 1 (topramezone 25 g ai/ha (1x)) | Classification and statistics of pesticide damage grade Grade 2 (topramezone 25 g ai/ha (1x)) | Classification and statistics of pesticide damage grade Grade 3 (topramezone 25 g ai/ha (1x)) | Classification and statistics of pesticide damage grade Grade 0 (topramezone 100 g ai/ha (4x)) | Classification and statistics of pesticide damage grade Grade 1 (topramezone 100 g ai/ha (4x)) | Classification and statistics of pesticide damage grade Grade 2 (topramezone 100 g ai/ha (4x)) | Classification and statistics of pesticide damage grade Grade 3 (topramezone 100 g ai/ha (4x)) | Scores (topramezone 25 g ai/ha (1x)) | Scores (topramezone 100 g ai/ha (4x)) | Resistance evaluation (topramezone 25 g ai/ha (1x)) | Resistance evaluation (topramezone 100 g ai/ha (4x))
1 | TaHPPDm-F372A-02: Triticum aestivum HPPD mutant F372A, SEQ ID NO: 42 (protein, TaHPPDm-F372A Amino Acid Sequence) MPPTPTTPAATGAGAAAAVTPEHARPRRMVRFNPRSDRFHTLSFHHVEFWCADAASAAGRFAFALGAPLAARSDLSTGNSVHASQLLRSGNLAFLFTAPYANGCDAATASLPSFSADAARRFSADHGLAVRSIALRVADAAEAFRASVDGGARPAFSPVDLGRGFGFAEVELYGDVVLRFVSHPDGTDVPFLPGFEGVSNPGAVDYGLTRFDHVVGNVPELASAAAYVAGFTGFHEFAEFTTEDVGTAESGLNSMVLANNSEGVLLPLNEPVHGTKRRSQIQTFLEHHGGPGVQHIAVASSDVLRTLREMRARSAMGGFDFLPPPLPKYYEGVRRIAGDVLSEAQIKECQELGVLVDRDDQGVLLQIATKPVGDRPTLFLEMIQRIGCMEKDERGEEYQKGGCGGFGKGNFSELFKSIEDYEKSLEAKQSAAVQGS | 16 | 0 | 0 | 0 | 15 | 1 | 0 | 0 | 0 | 2 | highly resistant (highly resistant plants (scores 0-15)) | highly resistant (highly resistant plants (scores 0-15))
2 | N3HPPDm-F372A-02: Burkholderia sp. N3 HPPD mutant F372A, SEQ ID NO: 162 (protein, N3HPPDm-F372A Amino Acid Sequence) MQIPNWENPVGTDGFEFIEYTAPDPKALGQLFERMGFTAIARHRHKDVTVYRQGDINFIINAEPHSFAQRFARLHGPSICAIAFRVQDAAKAYQHALELGAWGFDNKTGPMELNIPAIKGIGDSLIYFVDRWRGKNGAQPGAIGDISIYDVDFEPIAGANPNPAGHGLTYIDHLTHNVHRGRMQEWAEFYERLFNFREVRYFDIEGKVTGVKSKAMTSPCGKIRIPINEEGSDTAGQIQEYLDAYHGEGIQHIALGTNDIYGAVDGLRGKEVKLLDTIDTYYELVDRRVPDHGESLDELKKRKILIDGARDDLLLQIATENQIGPIFFEIIQRKGNQGFGEGNFKALFESIELDQIRRGVVQDKA | 16 | 0 | 0 | 0 | 12 | 4 | 0 | 0 | 0 | 8 | highly resistant (highly resistant plants (scores 0-15)) | highly resistant (highly resistant plants (scores 0-15))
3 | N4HPPDm-F372A-02: Burkholderia sp. N4 HPPD mutant F372A, SEQ ID NO: 168 (protein, N4HPPDm-F372A Amino Acid Sequence) MQIPNWENPVGTDGFEFIEYTAPDPKALGQLFERMGFTAIARHRHKDVTVYRQGDINFIINAEPDSFAQRFARLHGPSICAIAFRVQDAAKAYQHALELGAWGFDNKTGPMELNIPAIKGIGDSLIYFVDRWRGKNGAQPGAIGDISIYDVDFEPIAGATPNPAGHGLTYIDHLTHNVHRGRMQEWAEFYERLFNFREVRYFDIEGKVTGVKSKAMTSPCGKIRIPINEEGSDTAGQIQEYLDAYHGEGIQHIALGTSDIYGAVDGLRGKEVKLLDTIDTYYELVDRRVPDHGESLDELKKRKILIDGARDDLLLQIATENQIGPIFFEIIQRKGNQGFGEGTFKALFESIELDQIRRGVVQDKA | 16 | 0 | 0 | 0 | 12 | 4 | 0 | 0 | 0 | 8 | highly resistant (highly resistant plants (scores 0-15)) | highly resistant (highly resistant plants (scores 0-15))
4 | N4HPPD-02: native Burkholderia sp. N4 HPPD, SEQ ID NO: 165 (protein, N4HPPD Amino Acid Sequence (Burkholderia)) MQIPNWENPVGTDGFEFIEYTAPDPKALGQLFERMGFTAIARHRHKDVTVYRQGDINFIINAEPDSFAQRFARLHGPSICAIAFRVQDAAKAYQHALELGAWGFDNKTGPMELNIPAIKGIGDSLIYFVDRWRGKNGAQPGAIGDISIYDVDFEPIAGATPNPAGHGLTYIDHLTHNVHRGRMQEWAEFYERLFNFREVRYFDIEGKVTGVKSKAMTSPCGKIRIPINEEGSDTAGQIQEYLDAYHGEGIQHIALGTSDIYGAVDGLRGKEVKLLDTIDTYYELVDRRVPDHGESLDELKKRKILIDGARDDLLLQIFTENQIGPIFFEIIQRKGNQGFGEGTFKALFESIELDQIRRGVVQDKA | 5 | 6 | 5 | 0 | 0 | 8 | 2 | 6 | 33 | 63 | moderately resistant (moderately resistant plants (scores 16-33)) | poorly resistant (poorly resistant plants (scores 34-67))
5 | N5HPPD-02: native Sphingobium sp. N5 HPPD, SEQ ID NO: 171 (protein, N5HPPD Amino Acid Sequence (Burkholderia)) MAADSENPLGLHGFAFAEFTSPDPAAMARQFEQLGFVPAARRKDRGLTLYRQGRIAFILNAGEGEQASAFRAAHGPSANGMAFNVADAKAAHRHAIQSGATDADTAQSALPGTYAIEGIGDSLLYLVDSDPFADWDEVPGWREASAERGVGLDLLDHLTHNVRRGQMRVWSEFYATLFGFEEQKFFDIKGQATGLFSQAMIAPDHEIRIPLNESQDDNSQIEEFIREYNGEGIQHLALTTPDIYSTVEKLRANGVRLQDTIDTYYDLVDERVPGHGEDLARLRKNRILIDGDVHDEGLLLQIFTETMFGPIFFEIIQRKGNEGFGNGNFQVLFESIELDQIRRGVVTVDA | 6 | 6 | 4 | 0 | 0 | 7 | 5 | 4 | 21 | 60 | moderately resistant (moderately resistant plants (scores 16-33)) | poorly resistant (poorly resistant plants (scores 34-67))
6 | N5HPPDm-F372A-02: Sphingobium sp. N5 HPPD mutant F372A, SEQ ID NO: 174 (protein, N5HPPDm-F372A Amino Acid Sequence) MAADSENPLGLHGFAFAEFTSPDPAAMARQFEQLGFVPAARRKDRGLTLYRQGRIAFILNAGEGEQASAFRAAHGPSANGMAFNVADAKAAHRHAIQSGATDADTAQSALPGTYAIEGIGDSLLYLVDSDPFADWDEVPGWREASAERGVGLDLLDHLTHNVRRGQMRVWSEFYATLFGFEEQKFFDIKGQATGLFSQAMIAPDHEIRIPLNESQDDNSQIEEFIREYNGEGIQHLALTTPDIYSTVEKLRANGVRLQDTIDTYYDLVDERVPGHGEDLARLRKNRILIDGDVHDEGLLLQIATETMFGPIFFEIIQRKGNEGFGNGNFQVLFESIELDQIRRGVVTVDA | 16 | 0 | 0 | 0 | 13 | 3 | 0 | 0 | 0 | 6 | highly resistant (highly resistant plants (scores 0-15)) | highly resistant (highly resistant plants (scores 0-15))
